Data reported in paper PMC9482650, “Quantitative fragmentomics allow affinity mapping of interactomes” (Nature Communications, 2022).

T1: MPDZ_12, O75970
T1 sequence (O75970 1857-1958, limits assumed, looked up): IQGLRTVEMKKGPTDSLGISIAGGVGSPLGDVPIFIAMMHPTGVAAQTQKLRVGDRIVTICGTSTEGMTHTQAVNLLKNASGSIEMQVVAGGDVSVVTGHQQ

T2: GRIP1_2, Q9Y3R0
T2 sequence (Q9Y3R0 145-248, limits assumed, looked up): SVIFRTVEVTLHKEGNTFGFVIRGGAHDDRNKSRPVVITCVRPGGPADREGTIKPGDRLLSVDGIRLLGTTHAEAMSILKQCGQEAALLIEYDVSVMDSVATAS

T3: GRIP1_3, Q9Y3R0
T3 sequence (Q9Y3R0 247-346, limits assumed, looked up): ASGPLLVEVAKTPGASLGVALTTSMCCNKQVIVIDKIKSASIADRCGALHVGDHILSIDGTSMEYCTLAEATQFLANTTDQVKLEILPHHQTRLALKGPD

T4: SIPA1L2, Q9P2F8
T4 sequence (Q9P2F8 945-1036, limits assumed, looked up): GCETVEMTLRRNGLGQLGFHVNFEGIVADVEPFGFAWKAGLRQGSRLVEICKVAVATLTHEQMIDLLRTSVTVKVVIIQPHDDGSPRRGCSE

T5: SNTA1, Q13424
T5 sequence (Q13424 82-180, limits assumed, looked up): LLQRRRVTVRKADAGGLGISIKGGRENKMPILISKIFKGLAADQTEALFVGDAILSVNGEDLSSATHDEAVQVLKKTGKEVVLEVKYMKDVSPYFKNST

T6: GRIP1_4, Q9Y3R0
T6 sequence (Q9Y3R0 467-571, limits assumed, looked up): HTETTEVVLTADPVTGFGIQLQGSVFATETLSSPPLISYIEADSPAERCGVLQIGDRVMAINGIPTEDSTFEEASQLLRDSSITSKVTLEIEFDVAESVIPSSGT

T7: APBA2_1, Q99767
T7 sequence (Q99767 563-664, limits assumed, looked up): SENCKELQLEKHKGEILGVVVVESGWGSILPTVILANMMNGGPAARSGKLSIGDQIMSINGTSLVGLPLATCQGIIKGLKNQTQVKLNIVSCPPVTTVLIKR

T8: LNX2_2, Q8N448
T8 sequence (Q8N448 334-432, limits assumed, looked up): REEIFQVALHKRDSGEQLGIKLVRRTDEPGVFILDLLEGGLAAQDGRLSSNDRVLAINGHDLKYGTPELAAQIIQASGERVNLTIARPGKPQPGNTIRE

T9: ARHGEF11, O15085
T9 sequence (O15085 42-136, limits assumed, looked up): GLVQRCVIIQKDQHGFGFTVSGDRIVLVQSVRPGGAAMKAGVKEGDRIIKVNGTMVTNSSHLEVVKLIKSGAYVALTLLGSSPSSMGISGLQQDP

T10: PDZD7_3, Q9H5P4
T10 sequence (Q9H5P4 857-944, limits assumed, looked up): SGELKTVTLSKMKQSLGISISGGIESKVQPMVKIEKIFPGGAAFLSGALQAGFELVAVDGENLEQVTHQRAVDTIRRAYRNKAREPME

T11: PTPN13_1, Q12923
T11 sequence (Q12923 1088-1188, limits assumed, looked up): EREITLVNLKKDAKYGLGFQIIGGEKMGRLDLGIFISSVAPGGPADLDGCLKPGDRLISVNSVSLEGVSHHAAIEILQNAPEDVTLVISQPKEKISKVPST


Legend:
Experiment in all cases: holdup assay
Design in all cases: key: below the threshold = too weak to quantify, mostly under pKd 3.1 to 4
Conditions in all cases: plain residues with an end cap or a label only (N-terminal biotin on a linker: ado-ado)
HTRA2, O43464 = molecular target: HTRA2, O43464
Sequence of HTRA2, O43464 (O43464 355-458): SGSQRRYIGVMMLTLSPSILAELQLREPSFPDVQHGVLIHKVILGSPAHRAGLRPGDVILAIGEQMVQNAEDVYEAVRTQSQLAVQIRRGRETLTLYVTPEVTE

MPDZ_12, O75970 = molecular target: T1, MPDZ_12, O75970
GRIP1_2, Q9Y3R0 = molecular target: T2, GRIP1_2, Q9Y3R0
Inadl_4, Q8NI35 = molecular target: Inadl_4, Q8NI35
Sequence of Inadl_4, Q8NI35 (Q8NI35 547-651): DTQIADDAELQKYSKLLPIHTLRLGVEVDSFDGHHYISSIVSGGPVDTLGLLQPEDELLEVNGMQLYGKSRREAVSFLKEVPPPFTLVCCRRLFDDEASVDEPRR

DLG2_2, Q15700 = molecular target: DLG2_2, Q15700
SCRIB_1, Q14160 = molecular target: SCRIB_1, Q14160
Sequence of SCRIB_1, Q14160 (Q14160 718-814): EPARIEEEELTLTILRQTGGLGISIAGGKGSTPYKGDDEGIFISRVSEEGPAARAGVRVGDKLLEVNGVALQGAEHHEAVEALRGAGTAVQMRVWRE

DLG2_3, Q15700 = molecular target: DLG2_3, Q15700
GOPC, Q9HD26 = molecular target: GOPC, Q9HD26
ARHGEF12, Q9NZN5-2 = molecular target: ARHGEF12, Q9NZN5-2
Sequence of ARHGEF12, Q9NZN5-2 (Q9NZN5 other isoform, or with tags, fused parts or gaps): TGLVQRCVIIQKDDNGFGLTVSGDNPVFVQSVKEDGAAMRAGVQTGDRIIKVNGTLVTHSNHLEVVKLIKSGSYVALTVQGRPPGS

MAST2, Q6P0Q8 = molecular target: MAST2, Q6P0Q8
Sequence of MAST2, Q6P0Q8 (Q6P0Q8 1099-1202): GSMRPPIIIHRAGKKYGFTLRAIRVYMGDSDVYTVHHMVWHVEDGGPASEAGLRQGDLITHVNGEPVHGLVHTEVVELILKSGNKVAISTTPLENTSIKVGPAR

GRIP1_3, Q9Y3R0 = molecular target: T3, GRIP1_3, Q9Y3R0
GRIP2_7, Q9C0E4 = molecular target: GRIP2_7, Q9C0E4
Sequence of GRIP2_7, Q9C0E4 (Q9C0E4 934-1023): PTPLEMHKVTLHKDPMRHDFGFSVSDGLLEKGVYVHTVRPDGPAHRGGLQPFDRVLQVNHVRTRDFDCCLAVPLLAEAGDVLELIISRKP

Inadl_3, Q8NI35 = molecular target: Inadl_3, Q8NI35
Sequence of Inadl_3, Q8NI35 (Q8NI35 359-469): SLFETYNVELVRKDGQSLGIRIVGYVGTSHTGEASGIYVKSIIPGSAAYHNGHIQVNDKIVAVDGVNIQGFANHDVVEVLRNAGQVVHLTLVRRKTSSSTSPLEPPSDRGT

PDLIM1, O00151 = molecular target: PDLIM1, O00151
Sequence of PDLIM1, O00151 (O00151 1-87): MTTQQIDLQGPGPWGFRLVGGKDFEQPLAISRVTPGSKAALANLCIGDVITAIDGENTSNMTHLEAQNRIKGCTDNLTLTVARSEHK

SIPA1L2, Q9P2F8 = molecular target: T4, SIPA1L2, Q9P2F8
SNTA1, Q13424 = molecular target: T5, SNTA1, Q13424
GRIP1_4, Q9Y3R0 = molecular target: T6, GRIP1_4, Q9Y3R0
APBA2_1, Q99767 = molecular target: T7, APBA2_1, Q99767
LNX2_2, Q8N448 = molecular target: T8, LNX2_2, Q8N448
PICK1, Q9NRD5 = molecular target: PICK1, Q9NRD5
Sequence of PICK1, Q9NRD5 (Q9NRD5 17-115): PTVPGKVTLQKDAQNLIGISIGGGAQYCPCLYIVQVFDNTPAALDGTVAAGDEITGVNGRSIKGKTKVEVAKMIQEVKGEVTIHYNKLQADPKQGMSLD

LNX1_2, Q8TBB1 = molecular target: LNX1_2, Q8TBB1
Sequence of LNX1_2, Q8TBB1 (Q8TBB1 371-470): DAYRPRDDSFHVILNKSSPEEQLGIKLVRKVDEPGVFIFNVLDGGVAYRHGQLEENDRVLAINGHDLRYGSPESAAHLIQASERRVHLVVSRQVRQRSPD

GIPC2, Q8TF65 = molecular target: GIPC2, Q8TF65
Sequence of GIPC2, Q8TF65 (Q8TF65 112-203): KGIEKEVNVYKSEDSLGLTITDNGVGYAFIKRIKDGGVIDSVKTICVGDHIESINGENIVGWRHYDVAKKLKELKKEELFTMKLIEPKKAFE

Inadl_1, Q8NI35 = molecular target: Inadl_1, Q8NI35
Sequence of Inadl_1, Q8NI35 (Q8NI35 113-229): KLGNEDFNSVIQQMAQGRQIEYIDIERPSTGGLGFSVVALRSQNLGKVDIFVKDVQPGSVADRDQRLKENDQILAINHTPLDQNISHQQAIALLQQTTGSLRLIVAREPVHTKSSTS

ARHGEF11, O15085 = molecular target: T9, ARHGEF11, O15085
PDZD7_3, Q9H5P4 = molecular target: T10, PDZD7_3, Q9H5P4
PTPN13_1, Q12923 = molecular target: T11, PTPN13_1, Q12923
LDB3, O75112 = molecular target: LDB3, O75112
Sequence of LDB3, O75112 (O75112 1-94): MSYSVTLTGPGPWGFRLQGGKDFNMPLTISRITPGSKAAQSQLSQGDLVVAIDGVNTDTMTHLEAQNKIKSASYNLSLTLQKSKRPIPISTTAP

pKd (HTRA2, O43464) | pKd (MPDZ_12, O75970) | pKd (GRIP1_2, Q9Y3R0) | pKd (Inadl_4, Q8NI35) | pKd (DLG2_2, Q15700) | pKd (SCRIB_1, Q14160) | pKd (DLG2_3, Q15700) | pKd (GOPC, Q9HD26) | pKd (ARHGEF12, Q9NZN5-2) | pKd (MAST2, Q6P0Q8) | pKd (GRIP1_3, Q9Y3R0) | pKd (GRIP2_7, Q9C0E4) | pKd (Inadl_3, Q8NI35) | pKd (PDLIM1, O00151) | pKd (SIPA1L2, Q9P2F8) | pKd (SNTA1, Q13424) | pKd (GRIP1_4, Q9Y3R0) | pKd (APBA2_1, Q99767) | pKd (LNX2_2, Q8N448) | pKd (PICK1, Q9NRD5) | Binder | also measured
below the threshold | 3.5 | below the threshold | below the threshold | below the threshold | below the threshold | 3.83 | below the threshold | below the threshold | 3.82 | below the threshold | below the threshold | below the threshold | below the threshold | below the threshold | below the threshold | below the threshold | below the threshold | below the threshold | below the threshold | QKAPTKEFYA [SDC2, P34741] | pKd (LNX1_2, Q8TBB1): 3.5; pKd (GIPC2, Q8TF65): below the threshold; pKd (Inadl_1, Q8NI35): below the threshold; pKd (ARHGEF11, O15085): below the threshold; pKd (PDZD7_3, Q9H5P4): below the threshold; pKd (PTPN13_1, Q12923): below the threshold; pKd (LDB3, O75112): below the threshold
below the threshold | below the threshold | below the threshold | below the threshold | below the threshold | below the threshold | 3.74 | below the threshold | below the threshold | 5.08 | below the threshold | below the threshold | below the threshold | below the threshold | below the threshold | below the threshold | below the threshold | below the threshold | 3.49 | 3.91 | EKCGKEFSEF [PRKACA, P17612] | pKd (LNX1_2, Q8TBB1): below the threshold; pKd (GIPC2, Q8TF65): below the threshold; pKd (Inadl_1, Q8NI35): below the threshold; pKd (ARHGEF11, O15085): below the threshold; pKd (PDZD7_3, Q9H5P4): below the threshold; pKd (PTPN13_1, Q12923): below the threshold; pKd (LDB3, O75112): below the threshold

Further lines, the binder ahead of its results:

Binder | pKd (HTRA2, O43464) | pKd (MPDZ_12, O75970) | pKd (GRIP1_2, Q9Y3R0) | pKd (Inadl_4, Q8NI35) | pKd (DLG2_2, Q15700) | pKd (SCRIB_1, Q14160) | pKd (DLG2_3, Q15700) | pKd (GOPC, Q9HD26) | pKd (ARHGEF12, Q9NZN5-2) | pKd (MAST2, Q6P0Q8) | pKd (GRIP1_3, Q9Y3R0) | pKd (GRIP2_7, Q9C0E4) | pKd (Inadl_3, Q8NI35) | pKd (PDLIM1, O00151) | pKd (SIPA1L2, Q9P2F8) | pKd (SNTA1, Q13424) | pKd (GRIP1_4, Q9Y3R0) | pKd (APBA2_1, Q99767) | pKd (LNX2_2, Q8N448) | pKd (PICK1, Q9NRD5) | also measured
QLSFNTDTLC [ABCA2, Q9BZC7] | below the threshold | below the threshold | below the threshold | below the threshold | below the threshold | below the threshold | 3.73 | below the threshold | below the threshold | 4.79 | below the threshold | below the threshold | below the threshold | below the threshold | below the threshold | below the threshold | below the threshold | below the threshold | 3.78 | below the threshold | pKd (LNX1_2, Q8TBB1): below the threshold; pKd (GIPC2, Q8TF65): below the threshold; pKd (Inadl_1, Q8NI35): below the threshold; pKd (ARHGEF11, O15085): below the threshold; pKd (PDZD7_3, Q9H5P4): below the threshold; pKd (PTPN13_1, Q12923): below the threshold; pKd (LDB3, O75112): below the threshold
TGLWKHETTV [ADGRA3, Q8IWK6] | below the threshold | below the threshold | below the threshold | below the threshold | 5.4 | 4.74 | 4.86 | 3.92 | 4.06 | 5.47 | below the threshold | below the threshold | 3.86 | below the threshold | below the threshold | 4.58 | below the threshold | below the threshold | 4.93 | 4.16 | pKd (LNX1_2, Q8TBB1): 3.8; pKd (GIPC2, Q8TF65): 4.1; pKd (Inadl_1, Q8NI35): below the threshold; pKd (ARHGEF11, O15085): 4.31; pKd (PDZD7_3, Q9H5P4): 4.99; pKd (PTPN13_1, Q12923): below the threshold; pKd (LDB3, O75112): below the threshold
